This experiment has as its target recombinant GC (Cerezyme, Genzyme Therapeutics) (UniProt P04062). The experiment in a line: cell-based or functional assay.

The star is where a group is joined. Biotin = O=C1N[C@H]2[C@H](CS[C@H]2CCCCC(=O)*)N1; Ttds = NCCCOCCOCCOCCCNC(=O)CCC(=O)*

B1: 3xD Helix 5 peptide (peptide)
peptide: {Biotin-Ttds}-LREDDEAMDKAYQQKLFVTHTVDE-OH
As to B1, the half-life of GC activity at 37° C. (stabilization assay) amounted to 24 h.

B2: Helix 5 peptide (LIMP-2-derived, L152-E175) (peptide)
peptide: {Biotin-Ttds}-LREIIEAMLKAYQQKLFVTHTVDE-OH
With B2, the GC enzyme activity is 5 times and the half-life of GC activity at 37° C. (stabilization assay) was found to be 48 h.

(Values after US20170258870A1.)
